Assay results taken from US20050287664A1 (published 2005).

Target: T1, full length rat SD (Shen-Dan) protein expressed from pSDf in HEK293T cells (rat, UniProt Q2VWP9 24-1193)
T1 construct: Full-length rat SD amplified from E10.5 rat cDNA and ligated into pEF1/Myc-His (pSDf); also called SD-expressing cells
T1 sequence: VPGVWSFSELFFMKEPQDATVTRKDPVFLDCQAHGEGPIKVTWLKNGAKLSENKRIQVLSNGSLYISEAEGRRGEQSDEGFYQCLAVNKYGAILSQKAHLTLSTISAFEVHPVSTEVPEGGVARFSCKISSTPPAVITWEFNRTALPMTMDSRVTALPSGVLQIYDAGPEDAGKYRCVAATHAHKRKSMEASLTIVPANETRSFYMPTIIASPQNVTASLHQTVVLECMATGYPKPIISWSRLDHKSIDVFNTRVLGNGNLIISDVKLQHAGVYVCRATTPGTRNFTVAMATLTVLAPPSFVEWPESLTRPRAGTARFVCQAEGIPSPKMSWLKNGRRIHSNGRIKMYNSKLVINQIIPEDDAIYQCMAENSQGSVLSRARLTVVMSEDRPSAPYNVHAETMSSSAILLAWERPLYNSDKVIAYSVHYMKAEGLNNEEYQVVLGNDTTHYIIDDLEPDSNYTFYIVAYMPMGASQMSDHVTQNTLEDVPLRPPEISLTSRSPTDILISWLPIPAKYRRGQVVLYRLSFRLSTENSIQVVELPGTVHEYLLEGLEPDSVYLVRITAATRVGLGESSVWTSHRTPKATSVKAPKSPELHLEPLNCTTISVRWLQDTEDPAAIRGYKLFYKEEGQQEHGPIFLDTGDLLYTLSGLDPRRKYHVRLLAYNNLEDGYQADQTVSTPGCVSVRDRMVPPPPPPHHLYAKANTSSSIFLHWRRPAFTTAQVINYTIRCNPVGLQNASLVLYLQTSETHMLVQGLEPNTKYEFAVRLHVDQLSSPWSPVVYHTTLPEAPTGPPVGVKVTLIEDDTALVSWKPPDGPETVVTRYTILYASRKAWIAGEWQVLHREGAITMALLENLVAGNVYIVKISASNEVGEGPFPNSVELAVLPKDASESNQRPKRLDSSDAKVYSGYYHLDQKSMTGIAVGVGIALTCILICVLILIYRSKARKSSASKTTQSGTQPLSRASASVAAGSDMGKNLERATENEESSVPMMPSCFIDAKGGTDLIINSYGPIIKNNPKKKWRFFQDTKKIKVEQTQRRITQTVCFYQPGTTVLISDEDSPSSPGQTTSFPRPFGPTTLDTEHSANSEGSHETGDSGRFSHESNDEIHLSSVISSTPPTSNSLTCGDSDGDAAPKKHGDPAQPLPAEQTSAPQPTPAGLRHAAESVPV
Test: in situ binding assay, conditioned medium on pSDf-transfected HEK293T cells, immunofluorescence (anti-myc 9E10)
Excerpt: HEDJ/ERdj3 binds to the SD extracellular domain. a, Schematic representation of eight HEDJ/ERdj3 clones identified by yeast two-hybrid screening and their interaction with the SD extracellular domain, shown as activity in an X-gal assay. b, Various sd deletion mutants were examined for their ability to interact with C-terminal HEDJ/ERdj3. c, HEK293T cells were transiently transfected with pHEDJ or a control vector. Three days after transfection, conditioned medium (CM) and total cell lysate (TCL) were subjected to Western blotting to detect HEDJ/ERdj3 using anti-myc antibody. d, Quantification of HEDJ/ERdj3 binding to SD-expressing cells. HEK293T cells were transiently transfected with pSDf or control vector. SD expression was detected by W4 antiserum. Binding of HEDJ/ERdj3 on the cells was detected by anti-myc mAb. Cell nuclei were visualized by DAPI. […] Data were normalized relative to fluorescence intensity of the cells transfected with pSDf in the presence of control CM. Results are shown as means±s.e.m., from a total of 50 cells. (*, p<0.001; by student's t-test).
HEK293T cells were transfected with pSDf using FuGENE 6 (Roche). […] The fluorescence signal was quantified using ImageJ software (NIH, Bethesda, Md., USA).

B1: C-terminal His-myc-tagged HEDJ/ERdj3 protein secreted from pHEDJ-transfected HEK293T cells (ligand, mouse, UniProt Q99KV1 23-358, looked up)
chain: GRDFYKILGVPRSASIKDIKKAYRKLALQLHPDRNPDDPQAQEKFQDLGAAYEVLSDSEKRKQYDTYGEEGLKDGHQSSHGDIFSHFFGDFGFMFGGTPRQQDRNIPRGSDIIVDLEVTLEEVYAGNFVEVVRNKPVARQAPGKRKCNCRQEMRTTQLGPGRFQMTQEVVCDECPNVKLVNEERTLEVEIEPGVRDGMEYPFIGEGEPHVDGEPGDLRFRIKVVKHRIFERRGDDLYTNVTVSLVEALVGFEMDITHLDGHKVHISRDKITRPGAKLWKKGEGLPNFDNNNIKGSLIITFDVDFPKEQLTEEAKEGIKQLLKQGPVQKVYNGLQGY
notes: mature; also called secreted HEDJ/ERdj3; not shown: C-terminal His-myc tag from pEF1/Myc-His
B1: binds.
